Results: patent US5693476
pKd: −log10 of the molar value.

How the values were obtained:
[1] = target: GST-syntaxin 1A deletion mutant Syn 1A17 (amino acids 4-240) (Schistosoma japonicum; rat); assay: 20S complex on GST-Syn 1A17 beads, ATP and Mg++, Western blot densitometry
[2] = target: GST-syntaxin 1A H3 domain construct Syn 1A16 (amino acids 191-266) (Schistosoma japonicum; rat); assay: 20S complex on GST-Syn 1A16 beads, ATP and Mg++, Western blot densitometry
[3] = target: GST-syntaxin 1A H3 domain construct Syn 1A16 (amino acids 191-266) (Schistosoma japonicum; rat); assay: 20S complex assembly on GST-syntaxin beads with all four proteins together, ATP, 18° C. overnight MgCl2, Western blot densitometry, FIG. 6B
[4] = target: GST-syntaxin 1A cytoplasmic domain fusion protein (Syn 1A11, amino acids 4-266), immobilized on glutathione agarose beads (Schistosoma japonicum; rat); assay: as above
[5] = target: GST-syntaxin 1A deletion mutant Syn 1A13 (amino acids 4-221) (Schistosoma japonicum; rat); assay: as above
[6] = target: GST-syntaxin 1A deletion mutant Syn 1A17 (amino acids 4-240) (Schistosoma japonicum; rat); assay: as above
[7] = target: GST-syntaxin 1A deletion mutant Syn 1A6 (amino acids 4-190) (Schistosoma japonicum; rat); assay: as above
[8] = target: GST-syntaxin 1A cytoplasmic domain fusion protein (Syn 1A11, amino acids 4-266), immobilized on glutathione agarose beads (Schistosoma japonicum; rat); assay: 20S complex assembly on GST-syntaxin beads with SNAP-25, VAMP, α-SNAP and NSF added together, ATP, 25° C., Western blot densitometry, FIG. 6A
[9] = target: GST-syntaxin 1A H3 domain construct Syn 1A16 (amino acids 191-266) (Schistosoma japonicum; rat); assay: 20S complex assembly on GST-syntaxin beads with all four proteins together, ATPγS, 18° C. overnight MgCl2, Western blot densitometry, FIG. 6B
[10] = target: GST-syntaxin 1A cytoplasmic domain fusion protein (Syn 1A11, amino acids 4-266), immobilized on glutathione agarose beads (Schistosoma japonicum; rat); assay: as above
[11] = target: GST-syntaxin 1A deletion mutant Syn 1A13 (amino acids 4-221) (Schistosoma japonicum; rat); assay: as above
[12] = target: GST-syntaxin 1A deletion mutant Syn 1A17 (amino acids 4-240) (Schistosoma japonicum; rat); assay: as above
[13] = target: GST-syntaxin 1A deletion mutant Syn 1A6 (amino acids 4-190) (Schistosoma japonicum; rat); assay: as above
[14] = target: GST-syntaxin 1A cytoplasmic domain fusion protein (Syn 1A11, amino acids 4-266), immobilized on glutathione agarose beads (Schistosoma japonicum; rat); assay: 20S complex assembly on GST-syntaxin beads with SNAP-25, VAMP, α-SNAP and NSF added together, ATPγS, 25° C., Western blot densitometry, FIG. 6A
[15] = target: VAMP 2 cytoplasmic domain (amino acids 1-94), recombinant, immobilized on the SPR flow cell (rat); assay: SPR (BIAcore), VAMP 2 cytoplasmic domain immobilized
Sequence of VAMP 2 cytoplasmic domain (amino acids 1-94), recombinant, immobilized on the SPR flow cell (rat) (chain, as listed by the source): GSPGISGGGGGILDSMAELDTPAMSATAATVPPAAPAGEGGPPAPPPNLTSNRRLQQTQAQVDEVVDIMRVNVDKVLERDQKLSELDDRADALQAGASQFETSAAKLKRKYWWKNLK

[16] = target: VAMP 2 cytoplasmic domain (amino acids 1-94), recombinant, immobilized on the SPR flow cell (rat); assay: SPR (BIAcore), VAMP 2 cytoplasmic domain immobilized; KD = kd/ka
[17] = target: GST-syntaxin 1A (Syn1A11) point mutant 12 (four point mutations) (Schistosoma japonicum; rat); assay: GST-syntaxin point mutant on glutathione beads, soluble ligand, Western blot densitometry, FIG. 5B
[18] = target: GST-syntaxin 1A (Syn1A11) point mutant 13 (four point mutations) (Schistosoma japonicum; rat); assay: as above
[19] = target: GST-syntaxin 1A (Syn1A11) point mutant 34 (Schistosoma japonicum; rat); assay: as above
[20] = target: GST-syntaxin 1A (Syn1A11) point mutant 45 (Schistosoma japonicum; rat); assay: as above
[21] = target: GST-syntaxin 1A (Syn1A11) point mutant M1: R198A, I202A (Schistosoma japonicum; rat); assay: as above
[22] = target: GST-syntaxin 1A (Syn1A11) point mutant M2: L205A, I209A (Schistosoma japonicum; rat); assay: as above
[23] = target: GST-syntaxin 1A (Syn1A11) point mutant M3: L212A, F216A (Schistosoma japonicum; rat); assay: as above
[24] = target: GST-syntaxin 1A (Syn1A11) point mutant M4: V223A, Q226A (Schistosoma japonicum; rat); assay: as above
[25] = target: GST-syntaxin 1A (Syn1A11) point mutant M5: I230A, I233A (Schistosoma japonicum; rat); assay: as above
[26] = target: GST-syntaxin 1A (Syn1A11) point mutant M6: A240V, V244A (Schistosoma japonicum; rat); assay: as above
[27] = target: GST-syntaxin 1A cytoplasmic domain fusion protein (Syn 1A11, amino acids 4-266), immobilized on glutathione agarose beads (Schistosoma japonicum; rat); assay: GST-syntaxin 1A (wild type) on glutathione beads, soluble ligand, Western blot densitometry, FIG. 5B
[28] = target: GST-syntaxin 1A deletion mutant Syn 1A4 (amino acids 8-76) (Schistosoma japonicum; rat); assay: GST-syntaxin deletion mutant on glutathione beads, soluble ligand, Western blot densitometry; FIG. 4C row 1 from top, row label only in the figure (assigned by Table 1 order and paragraph 328)
[29] = target: GST-syntaxin 1A deletion mutant Syn 1A5 (amino acids 4-114) (Schistosoma japonicum; rat); assay: GST-syntaxin deletion mutant on glutathione beads, soluble ligand, Western blot densitometry; FIG. 4C row 2 from top, row label only in the figure (assigned by Table 1 order and paragraph 328)
[30] = target: GST-syntaxin 1A deletion mutant Syn 1A6 (amino acids 4-190) (Schistosoma japonicum; rat); assay: GST-syntaxin deletion mutant on glutathione beads, soluble ligand, Western blot densitometry; FIG. 4C row 3 from top, row label only in the figure (assigned by Table 1 order and paragraph 328)
[31] = target: GST-syntaxin 1A deletion mutant Syn 1A13 (amino acids 4-221) (Schistosoma japonicum; rat); assay: GST-syntaxin deletion mutant on glutathione beads, soluble ligand, Western blot densitometry; FIG. 4C row 4 from top, row label only in the figure (assigned by Table 1 order and paragraph 328)
[32] = target: GST-syntaxin 1A deletion mutant Syn 1A17 (amino acids 4-240) (Schistosoma japonicum; rat); assay: GST-syntaxin deletion mutant on glutathione beads, soluble ligand, Western blot densitometry; FIG. 4C row 5 from top, row label only in the figure (assigned by Table 1 order and paragraph 328)

Sequence of syntaxin 1A carboxyl-terminal domain (amino acids 194-267), soluble recombinant (chain): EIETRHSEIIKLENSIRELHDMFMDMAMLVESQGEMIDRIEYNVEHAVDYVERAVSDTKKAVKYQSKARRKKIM
Sequence of His-tagged NSF (N-ethylmaleimide-sensitive factor), soluble recombinant (P18708 whole entry): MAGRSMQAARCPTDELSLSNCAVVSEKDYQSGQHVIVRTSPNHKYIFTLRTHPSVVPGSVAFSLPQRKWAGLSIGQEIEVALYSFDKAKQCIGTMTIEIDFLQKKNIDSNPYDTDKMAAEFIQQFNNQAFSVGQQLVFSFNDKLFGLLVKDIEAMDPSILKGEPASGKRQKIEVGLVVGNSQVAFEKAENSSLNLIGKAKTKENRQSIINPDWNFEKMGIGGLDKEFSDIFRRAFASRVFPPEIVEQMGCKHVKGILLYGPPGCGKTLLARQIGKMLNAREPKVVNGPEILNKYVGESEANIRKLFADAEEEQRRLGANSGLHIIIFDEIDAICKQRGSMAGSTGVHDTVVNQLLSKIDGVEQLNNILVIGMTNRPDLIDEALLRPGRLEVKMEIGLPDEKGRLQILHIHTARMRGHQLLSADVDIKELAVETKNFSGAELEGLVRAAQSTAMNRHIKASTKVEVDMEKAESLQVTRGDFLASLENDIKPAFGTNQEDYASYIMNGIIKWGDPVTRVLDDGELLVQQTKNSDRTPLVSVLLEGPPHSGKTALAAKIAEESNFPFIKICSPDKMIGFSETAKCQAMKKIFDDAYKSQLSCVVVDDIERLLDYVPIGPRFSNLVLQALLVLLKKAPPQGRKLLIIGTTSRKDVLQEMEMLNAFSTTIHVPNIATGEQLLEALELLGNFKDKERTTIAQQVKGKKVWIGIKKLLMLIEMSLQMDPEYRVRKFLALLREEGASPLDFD

## His-tagged NSF (N-ethylmaleimide-sensitive factor), soluble recombinant (from UniProt P18708) (enzyme)
[1]
  percent dissociated in the presence of ATP and Mg++: 30%
[2]
  percent dissociated in the presence of ATP and Mg++: 11%
[3]
  densitometry pixel value: 357 pixel value
[4]
  densitometry pixel value: 92 pixel value
[5]
  densitometry pixel value: 12 pixel value
[6]
  densitometry pixel value: 198 pixel value
[7]
  densitometry pixel value: 0 pixel value
[8]
  densitometry pixel value: 362 pixel value
[9]
  densitometry pixel value: 319 pixel value
[10]
  densitometry pixel value: 163 pixel value
[11]
  densitometry pixel value: 46 pixel value
[12]
  densitometry pixel value: 295 pixel value
[13]
  densitometry pixel value: 0 pixel value
[14]
  densitometry pixel value: 1590 pixel value

## syntaxin 1A carboxyl-terminal domain (amino acids 194-267), soluble recombinant
[15]
  koff: 0.0022 s⁻¹
  kon: 470 M⁻¹ s⁻¹
[16]
  pKd: 5.33

## n-sec1, soluble recombinant (from UniProt P61765)
[17]
  densitometry pixel value: 618 pixel value
[18]
  densitometry pixel value: 79 pixel value
[19]
  densitometry pixel value: 353 pixel value
[20]
  densitometry pixel value: 7 pixel value
[21]
  densitometry pixel value: 522 pixel value
[22]
  densitometry pixel value: 779 pixel value
[23]
  densitometry pixel value: 554 pixel value
[24]
  densitometry pixel value: 623 pixel value
[25]
  densitometry pixel value: 15 pixel value
[26]
  densitometry pixel value: 687 pixel value
[27]
  densitometry pixel value: 1070 pixel value
[28]
  densitometry pixel value: 0 pixel value
[29]
  densitometry pixel value: 0 pixel value
[30]
  densitometry pixel value: 0 pixel value
[31]
  densitometry pixel value: 84 pixel value
[32]
  densitometry pixel value: 2450 pixel value
